Consider four molecules from paper doi:10.1101/2025.07.21.666041 (bioRxiv, 2025).

Several values for one entry are separate records, joined by “and”; a condition that tells them apart may be missing. Equal values may be shown once. Read-outs that look alike come from different tables or passages of the source.

As a reminder, the Kd is the constant that tells how readily two partners part at equilibrium. A low value points to higher affinity. For orientation: stoichiometry N means a count of units in the complex or per binding partner.

Series [1] addresses Measles virus (MeV) nonstructural protein C, full length, C-terminal GFP-Flag (measles virus) (UniProt P35977). The series can be described thus: MST.
Series [2] concerns the target T1, Measles virus (MeV) large (L) protein, full length (measles virus, UniProt P35975 1-2183). In words: SEC. Background: Size exclusion chromatography separates by hydrodynamic size, large species first.
Series [3] concerns the molecule itself. In words: cryo-EM structure.
Series [4] has as its target Measles virus L–P complex (full-length L with truncated P 304–507) (measles virus, UniProt P35975;P35974). The series can be described thus: MST.
Series [5] deals with the molecule itself. The series can be described thus: cryo-EM structure. This is another data set of the same source.
In series [6] the target is T1, Measles virus (MeV) large (L) protein, …. In words: cryo-EM structure.

T1 sequence (P35975 whole entry): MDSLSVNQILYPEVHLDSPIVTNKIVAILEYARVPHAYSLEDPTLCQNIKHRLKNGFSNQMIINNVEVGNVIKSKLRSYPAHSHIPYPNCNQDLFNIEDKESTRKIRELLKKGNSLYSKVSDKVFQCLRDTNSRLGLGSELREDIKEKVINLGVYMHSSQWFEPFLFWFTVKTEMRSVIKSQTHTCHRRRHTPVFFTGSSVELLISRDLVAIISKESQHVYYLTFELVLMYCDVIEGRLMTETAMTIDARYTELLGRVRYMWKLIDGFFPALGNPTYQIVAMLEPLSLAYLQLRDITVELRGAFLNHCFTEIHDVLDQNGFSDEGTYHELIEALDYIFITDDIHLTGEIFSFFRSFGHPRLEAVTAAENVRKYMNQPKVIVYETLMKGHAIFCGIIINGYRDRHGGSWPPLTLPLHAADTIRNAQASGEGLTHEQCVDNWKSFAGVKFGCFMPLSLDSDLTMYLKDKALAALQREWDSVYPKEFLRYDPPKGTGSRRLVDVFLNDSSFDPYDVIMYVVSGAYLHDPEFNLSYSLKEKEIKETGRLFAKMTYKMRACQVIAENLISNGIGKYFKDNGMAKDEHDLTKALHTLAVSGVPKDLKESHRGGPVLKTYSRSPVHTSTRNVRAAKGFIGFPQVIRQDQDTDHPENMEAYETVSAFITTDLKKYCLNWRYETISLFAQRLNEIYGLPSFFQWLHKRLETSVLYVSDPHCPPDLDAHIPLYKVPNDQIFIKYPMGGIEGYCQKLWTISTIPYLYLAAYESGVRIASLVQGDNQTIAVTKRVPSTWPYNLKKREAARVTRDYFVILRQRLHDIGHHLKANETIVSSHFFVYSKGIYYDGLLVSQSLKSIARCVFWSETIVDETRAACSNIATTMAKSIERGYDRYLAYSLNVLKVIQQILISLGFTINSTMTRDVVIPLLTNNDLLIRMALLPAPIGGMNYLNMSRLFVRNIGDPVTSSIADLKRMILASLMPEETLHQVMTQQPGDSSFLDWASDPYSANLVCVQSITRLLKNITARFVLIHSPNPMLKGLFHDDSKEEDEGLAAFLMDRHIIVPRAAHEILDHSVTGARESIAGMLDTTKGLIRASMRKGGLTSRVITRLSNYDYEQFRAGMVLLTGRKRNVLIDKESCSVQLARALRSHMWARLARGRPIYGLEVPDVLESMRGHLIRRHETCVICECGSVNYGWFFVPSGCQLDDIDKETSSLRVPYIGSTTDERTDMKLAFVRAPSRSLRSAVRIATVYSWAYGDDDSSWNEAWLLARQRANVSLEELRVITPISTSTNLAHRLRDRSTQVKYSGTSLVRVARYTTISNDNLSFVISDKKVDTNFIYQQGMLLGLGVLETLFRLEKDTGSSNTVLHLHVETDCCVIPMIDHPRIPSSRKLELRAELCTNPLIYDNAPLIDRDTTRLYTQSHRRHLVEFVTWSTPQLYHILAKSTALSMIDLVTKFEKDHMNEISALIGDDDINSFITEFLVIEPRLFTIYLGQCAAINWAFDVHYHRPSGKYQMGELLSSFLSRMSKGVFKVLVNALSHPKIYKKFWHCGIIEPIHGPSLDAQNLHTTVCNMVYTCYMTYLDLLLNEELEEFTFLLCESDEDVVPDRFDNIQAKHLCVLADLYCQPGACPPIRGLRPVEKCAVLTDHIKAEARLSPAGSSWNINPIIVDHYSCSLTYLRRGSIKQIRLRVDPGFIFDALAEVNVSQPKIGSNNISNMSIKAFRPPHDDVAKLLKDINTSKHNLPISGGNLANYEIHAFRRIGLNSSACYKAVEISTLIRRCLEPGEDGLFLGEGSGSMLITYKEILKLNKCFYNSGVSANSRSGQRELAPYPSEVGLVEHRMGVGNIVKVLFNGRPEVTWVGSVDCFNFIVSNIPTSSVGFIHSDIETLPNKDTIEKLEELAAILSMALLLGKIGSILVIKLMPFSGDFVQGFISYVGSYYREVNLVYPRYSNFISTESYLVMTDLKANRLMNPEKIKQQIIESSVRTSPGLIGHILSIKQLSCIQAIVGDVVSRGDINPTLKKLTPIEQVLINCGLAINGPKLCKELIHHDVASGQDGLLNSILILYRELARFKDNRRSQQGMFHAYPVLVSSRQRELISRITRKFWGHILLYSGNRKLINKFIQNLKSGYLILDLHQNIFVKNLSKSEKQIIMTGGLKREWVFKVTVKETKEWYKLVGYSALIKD
Chain of Measles virus L–P complex (full-length L with truncated P 304–507) (P35975 whole entry, the tested form may be a part, one chain of several): as the sequence (P35975 whole entry) above

As to “Measles virus nucleoprotein N lacking the N-arm (residues 30–525) (from UniProt P35972 30-525) (domain or fragment)”, the dissociation constant (Kd) in series [1] was 4.57 µM and 3.92 µM.

B1: Measles virus (MeV) phosphoprotein P, full length (natural protein)
chain: MAEEQARHVKNGLECIRALKAEPIGSLAIEEAMAAWSEISDNPGQERATCREEKAGSSGLSKPCLSAIGSTEGGAPRIRGQGPGESDDDAETLGIPPRNLQASSTGLQCYYVYDHSGEAVKGIQDADSIMVQSGLDGDSTLSGGDNESENSDVDIGEPDTEGYAITDRGSAPISMGFRASDVETAEGGEIHELLRLQSRGNNFPKLGKTLNVPPPPDPGRASTSGTPIKKGTERRLASFGTEIASLLTGGATQCARKSPSEPSGPGAPAGNVPEYVSNAALIQEWTPESGTTISPRSQNNEEGGDYYDDELFSDVQDIKTALAKIHEDNQKIISKLESLLLLKGEVESIKKQINRQNISISTLEGHLSSIMIAIPGLGKDPNDPTADVEINPDLKPIIGRDSGRALAEVLKKPVASRQLQGMTNGRTSSRGQLLKEFQPKPIGKKMSSAVGFVPDTGPASRSVIRSIIKSSRLEEDRKRYLMTLLDDIKGANDLAKFHQMLMKIIMK
As to B1, in series [2], the binding result was “binds”.

B2: Measles virus (MeV) nonstructural protein C, full length, C-terminal GFP-Flag (natural protein)
chain: MSKTDWNASGLSRPSPSAHWPSRKLWQHGQKYQTTQDRSEPPAGKRRQAVRVSANHASQQLDQLKAVHLASAVRDLERAMTTLKLWESPQEISRHQALGYSVIMFMITAVKRLRESKMLTLSWFNQALMVIAPYQEETMNLKTAMWILANLIPRDMLSLTGDLLPSLWGSGLLMLKLQKEGRSTSS
In the case of B2, the “stoichiometry N” value in “cryo-EM structure [3]” was determined as 2. This molecule registered a Kd in series [4] of about 0.32 µM.

B3: Measles virus (MeV) phosphoprotein P, N-terminally truncated (residues 304–507) (domain or fragment)
chain: GDYYDDELFSDVQDIKTALAKIHEDNQKIISKLESLLLLKGEVESIKKQINRQNISISTLEGHLSSIMIAIPGLGKDPNDPTADVEINPDLKPIIGRDSGRALAEVLKKPVASRQLQGMTNGRTSSRGQLLKEFQPKPIGKKMSSAVGFVPDTGPASRSVIRSIIKSSRLEEDRKRYLMTLLDDIKGANDLAKFHQMLMKIIMK
Turning to B3, the “stoichiometry N” value in “cryo-EM structure [5]” was 4. In addition, in series [6], the binding result is on record as “binds”.
